The target in data set [1] is human CD62L/L-selectin expressed on J.RT3-T3.5 cells (human) (UniProt P14151). The data set is described as follows: flow cytometry, 50 nM antibody on J.RT3-T3.5 cells 48 hours after electroporation with SELL siRNA.
Data set [2] concerns the target T1, L-selectin (CD62L, SELL) (Homo sapiens, UniProt P14151 P14151:39-332).
T1 sequence: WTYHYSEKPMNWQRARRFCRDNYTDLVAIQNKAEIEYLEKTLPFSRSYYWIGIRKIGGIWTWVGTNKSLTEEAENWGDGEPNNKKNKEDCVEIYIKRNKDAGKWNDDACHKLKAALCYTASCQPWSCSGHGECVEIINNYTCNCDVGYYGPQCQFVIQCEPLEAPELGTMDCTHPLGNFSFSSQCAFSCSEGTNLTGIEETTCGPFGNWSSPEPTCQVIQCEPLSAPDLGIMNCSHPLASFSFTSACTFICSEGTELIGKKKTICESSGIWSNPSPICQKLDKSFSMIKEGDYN
The data set is described as follows: BLI; +/-0.125; R2 0.9898; aptamer immobilised. As to conditions: tags: recombinant human CD62L, R&D Systems; label: 5' biotin. How it is done: (§1) Prior to running, Octet streptavidin (SA) biosensors (Sartorius of Göttingen, Germany) were pre-soaked in 200 μL diluent (WB supplemented with 1% BSA, 0.1 mg/mL yeast tRNA, 0.1 mg/mL salmon sperm DNA and 0.01% Tween-20). For BLI, the SA biosensors were first rinsed in 200 μL diluent for 100 sec to establish the first baseline. The rinsed sensors were transferred to wells containing 50 nM biotinylated aptamers in 200 μL diluent for aptamer immobilization onto the SA biosensors until a threshold of 0.5 nm is reached. Next, aptamer-immobilized SA biosensors were rinsed in 200 μL diluent for 100 sec to remove excess aptamers and for an additional 100 sec in 200 μL diluent to establish the second baseline. The sensors were then transferred to wells containing different concentrations of L-selectin in 200 μL diluent to allow aptamer association with CD62L (R&D Systems of Minneapolis, Minnesota), CD62P (ACROBiosystems of Newark, Delaware), or CD62E (ACROBiosystems). Finally, the sensors were transferred to wells containing 200 μL diluent to allow dissociation. The association and dissociation durations are indicated on the BLI curves.
(In BLI a coated tip is dipped into the sample, and binding shifts an interference pattern.)

Data set [3] deals with T1, L-selectin (CD62L, SELL). The data set is described as follows: BLI; +/-0.203; 1:1 fit poor (R2 0.9029); aptamer immobilised; DPBS Ca/Mg + 5 mM MgCl2, 1% BSA, tRNA, salmon sperm DNA, Tween-20. As to conditions: tags: recombinant human CD62L, R&D Systems; label: 5' 6-FAM, Cy5 or biotin (hexaethylene glycol spacer). How it is done:
Prior to running, Octet streptavidin (SA) biosensors (Sartorius of Göttingen, Germany) were pre-soaked in 200 μL diluent (WB supplemented with 1% BSA, 0.1 mg/mL yeast tRNA, 0.1 mg/mL salmon sperm DNA and 0.01% Tween-20). For BLI, the SA biosensors were first rinsed in 200 μL diluent for 100 sec to establish the first baseline. The rinsed sensors were transferred to wells containing 50 nM biotinylated aptamers in 200 μL diluent for aptamer immobilization onto the SA biosensors until a threshold of 0.5 nm is reached. Next, aptamer-immobilized SA biosensors were rinsed in 200 μL diluent for 100 sec to remove excess aptamers and for an additional 100 sec in 200 μL diluent to establish the second baseline. […]
To further validate A1 binding to CD62L, the expression of CD62L was knocked down in J.RT3-T3.5 cells with siRNA duplexes targeting the SELL gene, which encodes CD62L, and compared aptamer and antibody binding to J.RT3-T3.5 cells transfected with the SELL siRNA versus a control siRNA. […] The protein was serially diluted, and the association and dissociation kinetics of biotinylated CD62LApt.88 immobilized on streptavidin tips was measured. The dissociation constants (KD) were calculated by performing a global fit on the curves using a 1:1 model.

For data set [4], the target named is T2, L-selectin (CD62L) on J.RT3-T3.5 cells (Homo sapiens, UniProt P14151 P14151:39-372).
T2 sequence: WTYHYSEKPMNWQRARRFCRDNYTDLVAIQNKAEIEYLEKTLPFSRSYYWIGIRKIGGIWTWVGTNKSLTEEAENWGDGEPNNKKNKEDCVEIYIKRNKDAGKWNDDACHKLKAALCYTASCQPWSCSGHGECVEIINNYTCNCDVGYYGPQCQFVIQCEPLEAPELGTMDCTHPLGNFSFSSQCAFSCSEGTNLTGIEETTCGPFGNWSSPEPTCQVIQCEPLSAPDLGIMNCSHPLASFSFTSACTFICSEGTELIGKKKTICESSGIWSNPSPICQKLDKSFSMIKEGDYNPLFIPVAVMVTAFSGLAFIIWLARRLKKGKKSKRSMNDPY
The data set is described as follows: flow; stated as sub-nanomolar affinity. The note with it: tags: endogenous, J.RT3-T3.5 human T-ALL line; label: 5' 6-FAM, Cy5 or biotin (hexaethylene glycol spacer).

The target of data set [5] is T3, L-selectin (CD62L) on primary CD4+ T cells (Homo sapiens, UniProt P14151 P14151:39-372).
T3 sequence: T2 sequence
The data set can be described thus: flow; apparent KD +/-0.086; CD4+ T cells cultured in RPMI + 10% FBS. As to conditions: tags: endogenous, label: 5' 6-FAM, Cy5 or biotin (hexaethylene glycol spacer).

Data set [6] deals with T3, L-selectin (CD62L) on primary CD4+ T …. The data set is described as follows: flow; apparent KD +/-0.033; cryopreserved CD4+ T cells used right after thaw; DPBS Ca/Mg + 5 mM MgCl2, 4 C. The note with it: tags: endogenous, label: 5' 6-FAM, Cy5 or biotin (hexaethylene glycol spacer).
In another data set the target is T4, E-selectin (CD62E, SELE) (Homo sapiens, UniProt P16581 P16581:22-556).
T4 sequence: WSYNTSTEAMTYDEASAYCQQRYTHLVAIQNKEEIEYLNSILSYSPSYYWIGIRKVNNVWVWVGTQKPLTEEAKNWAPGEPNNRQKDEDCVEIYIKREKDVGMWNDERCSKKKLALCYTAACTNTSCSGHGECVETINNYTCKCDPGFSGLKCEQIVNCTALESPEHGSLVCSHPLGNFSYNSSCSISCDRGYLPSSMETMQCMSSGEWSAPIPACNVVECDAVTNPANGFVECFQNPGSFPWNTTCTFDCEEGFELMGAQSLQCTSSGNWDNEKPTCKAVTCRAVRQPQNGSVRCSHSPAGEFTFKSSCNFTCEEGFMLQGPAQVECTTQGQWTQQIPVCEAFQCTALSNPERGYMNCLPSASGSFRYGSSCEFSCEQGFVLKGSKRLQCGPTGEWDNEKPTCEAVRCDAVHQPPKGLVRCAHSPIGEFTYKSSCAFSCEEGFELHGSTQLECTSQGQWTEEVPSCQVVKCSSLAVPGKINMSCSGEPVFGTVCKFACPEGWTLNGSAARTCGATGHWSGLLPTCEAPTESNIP
The data set is described as follows: BLI; no noticeable binding up to 1000 nM CD62E. The note with it: tags: recombinant human CD62E, ACROBiosystems; label: 5' 6-FAM or biotin (hexaethylene glycol spacer). How it is done: as §1, with “The association and dissociation durations are indicated on the BLI curves.” left out
(§2) The binding affinity and kinetics of CD62LApt.52 to JRT.3-T3.5 cells and to recombinant human CD62L protein was characterized by flow cytometry and BLI, respectively. […] However, no noticeable binding of CD62LApt.52 to either CD62E or CD62P at up to 1000 nM was detected by BLI (FIGS. 15A, 15B).

Data set [7] deals with T1, L-selectin (CD62L, SELL). The data set can be described thus: BLI; +/-0.045; R2 0.9959; aptamer immobilised. The note with it: tags: recombinant human CD62L, R&D Systems; label: 5' 6-FAM or biotin (hexaethylene glycol spacer). On the procedure:
as §1, with “The association and dissociation durations are indicated on the BLI curves.” left out
as §2

The next data set deals with P-selectin (CD62P, SELP) (Homo sapiens, UniProt P16109 P16109:42-771). The data set is described as follows: BLI; no noticeable binding up to 1000 nM CD62P. As to conditions: tags: recombinant human CD62P, ACROBiosystems; label: 5' 6-FAM or biotin (hexaethylene glycol spacer). On the procedure:
as §1, with “The association and dissociation durations are indicated on the BLI curves.” left out
as §2

Data set [8] concerns the target T2, L-selectin (CD62L) on J.RT3-T3.5 cells. The data set is described as follows: flow; DPBS Ca/Mg + 5 mM MgCl2, 25 mM glucose, BSA, 4 C. As to conditions: tags: endogenous, J.RT3-T3.5 human T-ALL line; label: 5' 6-FAM or biotin (hexaethylene glycol spacer).

We go through four molecules from US20260227398A1, “CD62L (L-SELECTIN) APTAMER AND ITS APPLICATION FOR T CELL ISOLATION” (University of Washington, published 2026).

Chain of P-selectin (CD62P, SELP) (P16109 42-771, one chain of several): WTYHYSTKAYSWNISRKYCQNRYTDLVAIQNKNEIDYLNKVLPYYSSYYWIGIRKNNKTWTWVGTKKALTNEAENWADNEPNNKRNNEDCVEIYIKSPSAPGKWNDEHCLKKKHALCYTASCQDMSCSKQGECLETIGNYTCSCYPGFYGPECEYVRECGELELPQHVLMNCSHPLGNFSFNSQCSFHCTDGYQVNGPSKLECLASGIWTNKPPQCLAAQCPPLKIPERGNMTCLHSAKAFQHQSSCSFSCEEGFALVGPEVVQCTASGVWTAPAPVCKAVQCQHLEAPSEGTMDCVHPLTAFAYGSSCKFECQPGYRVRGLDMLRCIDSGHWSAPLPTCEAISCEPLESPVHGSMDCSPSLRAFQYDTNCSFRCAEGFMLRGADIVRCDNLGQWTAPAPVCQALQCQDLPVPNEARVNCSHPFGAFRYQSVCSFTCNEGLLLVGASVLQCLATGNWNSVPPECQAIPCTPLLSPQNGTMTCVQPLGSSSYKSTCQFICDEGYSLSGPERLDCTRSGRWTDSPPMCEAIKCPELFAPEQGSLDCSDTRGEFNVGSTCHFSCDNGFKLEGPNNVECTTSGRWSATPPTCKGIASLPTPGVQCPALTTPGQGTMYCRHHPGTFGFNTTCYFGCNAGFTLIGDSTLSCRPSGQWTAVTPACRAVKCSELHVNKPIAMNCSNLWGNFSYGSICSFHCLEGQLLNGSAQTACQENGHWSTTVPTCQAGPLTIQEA

As for “Alexa Fluor 488 anti-human CD62L monoclonal antibody, clone DREG-56 (BioLegend)”, the relative antibody binding after CD62L siRNA knockdown (vs control siRNA) in [1] was 17%.

B1: CD62LApt.61 (ssDNA)
DNA: AGACCCGACGCAGCATAGTCAAGGCGATAGACGAAAAACATTGTTTTCCTGGAAGGCCCAGAATCTGCG
In the case of B1, the Kd with L-selectin (CD62L, SELL) [2] was found to be 5.81 nM.

B2: CD62LApt.88 (A1, L-SA.88) (ssDNA)
DNA: ATCCAGAGTGACGCAGCATAGTCAAGGCGATAGACGAAAAACATTGTTTTCCTGGAAGGCCCAGAATCTGTGGACACGGTGGCTTAGT
With B2, the Kd was 4.91 nM with L-selectin (CD62L, SELL) [3]; under 1 nM in [4]; 0.31 nM in [5]; 0.04 nM in [6].

B3: CD62LApt.52 (ssDNA)
DNA: TAGTCAAGGCGATAGACGAAAAACATTGTTTTCCTGGAAGGCCCAGAATCTG
As to B3, the binding result in the data set with E-selectin (CD62E, SELE) is recorded as “no binding”; with P-selectin (CD62P, SELP) it was “no binding”. The Kd with L-selectin (CD62L, SELL) [7] came out at 5.3 nM; in data set [8], 0.19 nM.
